{"source": "patent US20240158505A1", "about": "(published 2024)", "key": {"[1]": {"biological_target": "T1, Recombinant Human B7-H3 Fc chimera Protein (Rndsystem, Cat #1027-B3-100) (human, UniProt Q5ZPR3 29-245)", "T1 chain": "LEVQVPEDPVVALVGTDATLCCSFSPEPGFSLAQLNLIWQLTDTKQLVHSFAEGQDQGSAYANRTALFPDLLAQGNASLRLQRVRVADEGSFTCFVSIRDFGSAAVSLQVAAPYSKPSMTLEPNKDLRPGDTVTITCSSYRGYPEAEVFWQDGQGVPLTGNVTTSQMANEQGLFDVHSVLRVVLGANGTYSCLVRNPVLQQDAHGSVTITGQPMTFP", "test": "ELISA"}, "[2]": {"biological_target": "B7-H3 expressed on the cell membrane (MCF-7, RKO and RKO/B7H3 cell lines) (UniProt Q5ZPR3)", "sequence (Q5ZPR3 29-534)": "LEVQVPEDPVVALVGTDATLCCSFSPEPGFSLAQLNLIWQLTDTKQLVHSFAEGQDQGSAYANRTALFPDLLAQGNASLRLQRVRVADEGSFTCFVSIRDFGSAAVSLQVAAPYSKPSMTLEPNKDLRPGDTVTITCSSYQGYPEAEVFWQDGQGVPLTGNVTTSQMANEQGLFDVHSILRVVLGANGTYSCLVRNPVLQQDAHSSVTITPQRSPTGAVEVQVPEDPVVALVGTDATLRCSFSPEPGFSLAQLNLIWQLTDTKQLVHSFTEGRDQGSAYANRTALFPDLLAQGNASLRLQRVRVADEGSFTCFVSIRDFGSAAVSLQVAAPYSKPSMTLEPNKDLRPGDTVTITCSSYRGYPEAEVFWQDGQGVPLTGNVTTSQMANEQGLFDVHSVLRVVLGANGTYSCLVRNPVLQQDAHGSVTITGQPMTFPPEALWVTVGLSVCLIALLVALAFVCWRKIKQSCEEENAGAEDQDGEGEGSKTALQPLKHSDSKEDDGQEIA", "test": "cell ELISA on fixed MCF-7 cells"}, "[3]": {"biological_target": "B7-H3 expressed on the cell membrane (MCF-7, RKO and RKO/B7H3 cell lines) (UniProt Q5ZPR3)", "test": "cell ELISA on fixed RKO/B7H3 cells"}}}
{"binder": "#7 antibody (antibody, V domains shown) VH: EVQLLESGGGLVQPGGSLRLSCAASGFTFSNFWIGWVRQAPGKGLEWVSWINPPGSITSYADSVKGRFTISRDNSKDTLYLQMNSLRAEDTAVYYCAREVGDVLDYWGQGTLVTVSS VL: QSVLTQPPSASGTPGQRVTISCTGTSSDIGRYNYVSWYQQLPGTAPKLLIYRNTQRPSGVPDRFSGSKSGTSASLAISGLRSEDEADYYCGTWDSSLNAYVFGGGTKLTVL", "values": [{"measurement": "EC50", "setting": "[1]", "value": 1.8, "unit": "nM"}, {"measurement": "EC50", "setting": "[2]", "value": 1.01, "unit": "nM"}, {"measurement": "EC50", "setting": "[3]", "value": 0.187, "unit": "nM"}]}
{"binder": "#8 antibody (antibody, V domains shown) VH: EVQLLESGGGLVQPGSSLRLSCAASGFTFSSYWISWVRQAPGKGLEWVSEISPSGNTNYNPSLKSRFTISRDNSKNTLYLQMNSLRAEDTAVYYCAREVGDLLDYWGQGTLVTVSS VL: QSVLTQPPSASGTPGQRVTISCSGSNIGNNYVSWYQQLPGTAPKLLIYQDSKRPSGVPDRFSGSKSGTSASLAISGLRSEDEADYYCLVWDRSSDHFVFGGGTKLTVL", "values": [{"measurement": "EC50", "setting": "[1]", "value": 0.63, "unit": "nM"}, {"measurement": "EC50", "setting": "[2]", "value": 0.159, "unit": "nM"}, {"measurement": "EC50", "setting": "[3]", "value": 0.06, "unit": "nM"}]}
{"binder": "#5 antibody (antibody, V domains shown) VH: EVQLLESGGGLVQPGGSLRLSCAASGFTFSTYAMSWVRQAPGKGLEWVSAISGSGGSTLYADSVKGRFTISRDNSKNTLYLQMNSLRAEDTAVYYCARGGSATWAFDLWGQGTLVTVSS VL: QSVLTQPPSASGTPGQRVTISCSGSSSNIGSNYVYWYQQLPGTAPKLLIYRNNQRPSGVPDRFSGSKSGTSASLAISGLRSEDEADYYCGTWDSSLSGVVFGGGTKLTVL", "values": [{"measurement": "EC50", "setting": "[1]", "value": 1.2, "unit": "nM"}, {"measurement": "EC50", "setting": "[2]", "value": 1.74, "unit": "nM"}, {"measurement": "EC50", "setting": "[3]", "value": 0.091, "unit": "nM"}]}
{"binder": "#6 antibody (antibody, V domains shown) VH: EVQLLESGGGLVQPGGSLRLSCAASGFTFSTYAISWVRQAPGKGLEWVSSIYYSGYTHYNPSLESRFTISRDNSKNTLYLQMNSLRAEDTAVYYCARGYSGWMDVWGQGTLVTVSS VL: QSVLTQPPSASGTPGQRVTISCGGNNIGSKSVHWYQQLPGTAPKLLIYDNNKRPSGVPNRFSGSKSGTSASLAISGLRSEDEADYYCAAWDDSLNVPVFGGGTKLTVL", "values": [{"measurement": "EC50", "setting": "[1]", "value": 1.86, "unit": "nM"}, {"measurement": "EC50", "setting": "[2]", "value": 0.234, "unit": "nM"}, {"measurement": "EC50", "setting": "[3]", "value": 0.065, "unit": "nM"}]}
{"binder": "#9 antibody (antibody, V domains shown) VH: EVQLLESGGGLVQPGGSLRLSCAASGFTFSSYAMNWVRQAPGKGLEWVSTISGSGGQTYYADSVKGRFTISRDNSKNTLYLQMNSLRAEDTAVYYCARWRSIWAFDYWGQGTLVTVSS VL: QSVLTQPPSASGTPGQRVTISCSDNNIGSKSVHWYQQLPGTAPKLLIYDNNKRPSGVPDRFSGSKSGTSASLAISGLRSEDEADYYCGTWDDSLSGPVFGGGTKLTVL", "values": [{"measurement": "EC50", "setting": "[1]", "value": 1.1, "unit": "nM"}, {"measurement": "EC50", "setting": "[2]", "value": 0.322, "unit": "nM"}, {"measurement": "EC50", "setting": "[3]", "value": 0.05, "unit": "nM"}]}
{"binder": "#3 antibody (antibody, V domains shown) VH: EVQLLESGGGLVQPGGSLRLSCAASGFTFSTYYMTWVRQAPGKGLEWVSIINPRGGSTSYAEKFQGRFTISRDNSKNTLYLQMNSLRAEDTAVYYCARWNLGMDVWGQGTLVTVSS VL: EIVLTQSPGTLSLSPGERATLSCRVSQSISSYLNWYQQKPGQAPRLLIYDASHRATGIPDRFSGSGSGTDFTLTISRLEPEDFAVYYCQQYYAPSVTFGQGTKVEIK", "values": [{"measurement": "EC50", "setting": "[1]", "value": 1.1, "unit": "nM"}, {"measurement": "EC50", "setting": "[2]", "value": 0.197, "unit": "nM"}, {"measurement": "EC50", "setting": "[3]", "value": 0.065, "unit": "nM"}]}
{"binder": "#2 antibody (antibody, V domains shown) VH: EVQLLESGGGLVQPGGSLRLSCAASGFTFSAYYMIWVRQAPGKGLEWVSITNPSGGVTSYAQKFQGRFTISRDNSKNTLYLQMNSLRAEDTAVYYCARVGGRGFDIWGQGTLVTVSS VL: EIVLTQSPGTLSLSPGERATLSCHASQGISNYVAWYQQKPGQAPRLLIYDASNRATGIPDRFSGSGSGTDFTLTISHLEPEDFAVYYCQQSYSTLLTFGQGTKVEIK", "values": [{"measurement": "EC50", "setting": "[1]", "value": 0.42, "unit": "nM"}, {"measurement": "EC50", "setting": "[2]", "value": 0.061, "unit": "nM"}, {"measurement": "EC50", "setting": "[3]", "value": 0.036, "unit": "nM"}]}
{"binder": "#1 antibody (antibody, V domains shown) VH: EVQLLESGGGLVQPGGSLRLSCAASGFTFSSYAMSWVRQAPGKGLEWVSTITGSGGSTYYADSVKGRFTISRDNSKNTLYLQMNSLRAEDTAVYYCARYKSGAFDIWGQGTLVTVSS VL: EIVLTQSPGTLSLSPGERATLSCRASQGIGNYLGWYQQKPGQAPRLLIYTASSLQSGIPDRFSGSGSGTDFTLTISRLEPEDFAVYYCQQGYSTPSWTFGQGTKVEIK", "values": [{"measurement": "EC50", "setting": "[1]", "value": 0.18, "unit": "nM"}, {"measurement": "EC50", "setting": "[2]", "value": 0.605, "unit": "nM"}, {"measurement": "EC50", "setting": "[3]", "value": 0.015, "unit": "nM"}]}
{"binder": "#4 antibody (antibody, V domains shown) VH: EVQLLESGGGLVQPGGSLRLSCAASGFTFSSYGMHWVRQAPGKGLEWVSAISGSGTSIYYANSVKSRFTISRDNSKNTLYLQMNSLRAEDTAVYYCARGAGWFDYWGQGTLVTVSS VL: QSVLTQPPSASGTPGQRVTISCSGSTSNIGSNTVNWYQQLPGTAPKLLIYGKNIRPNGVPDRFSGSKSGTSASLAISGLHSEDEADYYCQSYDSSLSGWVFGGGTKLTVL", "values": [{"measurement": "EC50", "setting": "[1]", "value": 0.55, "unit": "nM"}, {"measurement": "EC50", "setting": "[2]", "value": 0.502, "unit": "nM"}, {"measurement": "EC50", "setting": "[3]", "value": 0.042, "unit": "nM"}]}
